The values below come from US20200247894A1 (Regeneron, published 2020).

T1: human IL-2Rγ endogenously expressed on NK-92 and Jurkat cells (human, UniProt P31785 23-369)
T1 construct: whole, on cells; on cells it stands with the other receptor subunits of the cell line; also called IL-2Rg; CD132
T1 sequence (looked up): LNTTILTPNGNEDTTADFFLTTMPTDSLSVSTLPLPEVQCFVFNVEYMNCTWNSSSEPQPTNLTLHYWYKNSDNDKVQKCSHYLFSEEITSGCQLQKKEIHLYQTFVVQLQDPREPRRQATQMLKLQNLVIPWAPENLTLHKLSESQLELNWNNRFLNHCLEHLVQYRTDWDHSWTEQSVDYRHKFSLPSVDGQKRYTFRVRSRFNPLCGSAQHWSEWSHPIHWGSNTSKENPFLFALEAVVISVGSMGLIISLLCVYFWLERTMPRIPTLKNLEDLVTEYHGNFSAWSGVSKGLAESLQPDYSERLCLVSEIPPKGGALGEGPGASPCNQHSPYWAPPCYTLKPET

T2: mouse IL-2Rγ endogenously expressed on MC/9 cells (mouse, UniProt P34902 23-369)
T2 construct: whole, on cells
T2 sequence (looked up): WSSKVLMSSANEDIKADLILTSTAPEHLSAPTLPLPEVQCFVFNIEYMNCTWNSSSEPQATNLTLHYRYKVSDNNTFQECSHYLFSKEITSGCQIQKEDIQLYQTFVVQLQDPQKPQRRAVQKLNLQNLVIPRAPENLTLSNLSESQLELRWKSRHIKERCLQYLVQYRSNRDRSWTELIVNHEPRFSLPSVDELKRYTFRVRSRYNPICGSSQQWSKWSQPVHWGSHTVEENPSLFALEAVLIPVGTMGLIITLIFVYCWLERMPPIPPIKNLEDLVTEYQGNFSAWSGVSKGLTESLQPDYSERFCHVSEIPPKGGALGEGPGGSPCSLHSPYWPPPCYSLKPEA

B1: H4H12926P2 (antibody, human IgG4 S228P, kappa, V domains shown)
VH: QVQLQQSGPGLVKPSQTLSLTCAISGDSVSSNIAAWNWIRLSPSRGLEWLGRTFFRSTWFYDYSLSVKGRITINPDTSKNQFSLHLNSVTPEDAAVYYCARTGRRWSLDYWGQGTLVTVSS
VL: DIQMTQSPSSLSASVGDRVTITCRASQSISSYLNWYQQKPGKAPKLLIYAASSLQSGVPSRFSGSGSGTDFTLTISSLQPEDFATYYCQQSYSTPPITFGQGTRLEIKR
notes: fully human anti-IL2Rg antibody, human IgG4
B2: H4H12913P2 (antibody, human IgG4 S228P, kappa, V domains shown)
VH: EVQLVESGGGVVRPGGSLRLSCAASGFTFDDYGMSWVRQAPGKGLEWISSINRNGGSADYADSVKGRFTISRDNAKNSLFLQMSSLRAEDTALYHCASGEFRFDYWGQGTLVTVSS
VL: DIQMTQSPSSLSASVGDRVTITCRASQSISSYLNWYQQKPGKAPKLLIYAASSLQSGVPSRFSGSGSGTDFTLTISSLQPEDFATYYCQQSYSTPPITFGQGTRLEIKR
notes: as for B1
B3: H4H12927P2 (antibody, human IgG4 S228P, kappa, V domains shown)
VH: EVQLVESGGGVVRPGGSLRLSCATSGFTFDDYGMSWVRQVPGKGLEWVSSVNRNGGTTDYADSVKGRFTISRDNAKRSLFLQMNSLRAEDTALYHCATGELFFDYWGQGTLVTVSS
VL: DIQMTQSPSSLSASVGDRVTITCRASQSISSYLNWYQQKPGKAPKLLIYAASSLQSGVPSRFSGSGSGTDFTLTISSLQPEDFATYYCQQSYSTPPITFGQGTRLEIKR
notes: as for B1
B4: H4H12889P (antibody, human IgG4 S228P, kappa, V domains shown)
VH: EVQLVESGGGLVQPGGSLRLSCAASGFIFSSYEMHWVRQAPGKGLEWISYISSSGTTIYYADSVKGRFTISRDNAKNSLYLHMNSLRAEDTAVYYCTRARITGTFDVFDIWGQGTMVTVSS
VL: DIQMTQSPSSLSASVGDRVTITCRASQSISSYLNWYQQKPGKAPKLLIFAASNLQSGVPSRFSGSRSGTDFTLTISSLQPEDFATYYCQQNYNIPYTFGQGTKLEIKR
notes: fully human anti-IL2Rg antibody, human IgG4; also called REGN7257
B5: H4H12899P (antibody, human IgG4 S228P, kappa, V domains shown)
VH: QVQLVESGGDLVKPGGSLRLSCATSGFTFSDFYMTWIRQAPGKGLEWISYISNSGSIVKYADSVKGRFTISRDNAKNSLYLQMNSLRAEDTAIYYCARFYGDRWGQGTLVTVSS
VL: DIQLTQSPSFLSASVGDRVTITCWASQGISTFLAWYQQKPGKAPKLLIYAASTLQSGVPSRFSGSGSGTDFTLTISSLQPEDFATYHCQQLNNYPWTFGQGTKVEIKR
notes: as for B1
B6: H4H12900P (antibody, human IgG4 S228P, kappa, V domains shown)
VH: QVQLVESGGGLVKPGGSLRLSCEASGFTFNDFYMTWIRQAPGKGLEWIAYISKSGDKMRYADSVKGRFSTSRDNAKNSLSLQMNSLRAEDTAVYYCARFYGDIWGQGTLVTVSS
VL: B5 VL with G28D, T31S, A34V, K45N, T53A, D70E, T85S, H87Y, Q89E
notes: as for B1
B7: H4H12924P2 (antibody, human IgG4 S228P, kappa, V domains shown)
VH: EVQLVESGGGLVQPGRSLRLSCAASGFTLEDYAMHWVRQAPGKGLEWVSGISWNRGSTGYADSVKGRFTISRDNAKNSLYLQMTSLRAEDTALYYCAKGFYSMDVWGQGTTVTVSS
VL: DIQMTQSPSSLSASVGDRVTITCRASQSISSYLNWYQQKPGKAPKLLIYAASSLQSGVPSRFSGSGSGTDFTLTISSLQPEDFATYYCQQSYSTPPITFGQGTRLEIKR
notes: as for B1
B8: H4H12922P2 (antibody, human IgG4 S228P, kappa, V domains shown)
VH: QVQLVESGGGVVKPGGSLRLSCAASGFTFSNSGIHWVRQAPGKGLEWVALISYAGSNKYYADSVKGRFTISRDNSKNTLSLQMNSLRAEDTAVYYCAKEVWTGTYDSFDMWGRGTMVTVSS
VL: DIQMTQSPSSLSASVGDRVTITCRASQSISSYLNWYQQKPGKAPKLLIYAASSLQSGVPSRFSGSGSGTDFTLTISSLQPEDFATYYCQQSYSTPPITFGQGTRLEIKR
notes: fully human anti-IL2Rg antibody, human IgG4; also called REGN7256
B9: H4H12886P (antibody, human IgG4 S228P, kappa, V domains shown)
VH: EVQLVESGGGLVKPGGSLRLSCAASGFTFSTAWMSWVRQSPGRGLEWVGRMKSKTDGGTTFYAAPVKGRFTISRDDSKNTLYLQMNSLKTEDTAVYYCTTGLVPAFYKYYGVDVWGQGTTVTVSS
VL: DIQMTQSPSSLSASVGDRITITCQASQDITNYLNWYQQKPGKAPNLLIYDASNLVTGVPSRFSGSGSGTDFTFTILSLQPEDIATYYCQQYDSLLTFGPGTKVDIKR
notes: as for B1
B10: H4H12908P (antibody, human IgG4 S228P, kappa, V domains shown)
VH: EVQLVESGGRLVQPGGSLRLSCEASGFTFSNYGMTWVRQAPGKGLEWVSVISGSDNRKYYAESVKGRFTISRDNSKNTLYLQMNSLRAEDTAVYYCAKLGYSRSSKDFYYGMDVWGQGTTVTVSS
VL: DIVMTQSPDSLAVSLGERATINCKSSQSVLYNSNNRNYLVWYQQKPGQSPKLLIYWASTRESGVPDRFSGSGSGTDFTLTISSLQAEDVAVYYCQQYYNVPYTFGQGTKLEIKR
notes: as for B1
B11: H4H12884P (antibody, human IgG4 S228P, kappa, V domains shown)
VH: QVQLQESGPGLVKPSQTLSLTCTVSGGSISSGGYYWSWIRQHPGKGLEWIGFIYYSGKTYYNPSLKSRLTISVDTSKSQFSLKLRSVTAADTAVYYCARLGYTNSAGWFDPWGQGTLVTVSS
VL: DIQMTQSPSSLSASVGDRVTITCRASQSISSYLNWYQQKPGKAPNLLIYAASSLQSGVPSRFSGSGSGTDFTLTISSLQPEDLATYYCQQSYTTPFTFGPGTKVDIKR
notes: as for B1
B12: H4H12890P (antibody, human IgG4 S228P, kappa, V domains shown)
VH: EVQLVESGGGLVQPGGSLRLSCAASGFTFNNYAMHWVRQAPGKGLEYVSSISSSGGSTYYEDSVKGRFTISRDNSKNTLYLQMGSLRAEDMAVYYCARSFYGSGTYYDTFDMWGQGTMVTVSS
VL: B11 VL with V15I, S31R, N45K, G64A, L83F, T93S, P100Q, V104L, D105E
notes: as for B1

Residue numbers refer to the chain shown, from its start.

The target in one test is T1, human IL-2Rγ endogenously expressed on …. Kind of test: flow cytometry, 10 ug/ml antibody, NK-92 cells (endogenous human IL-2Rg). How it is done:
(§1) For flow cytometry analyses, the cells were pre-incubated with mouse IgG at 100 μg/ml for 15 minutes at room temperature (RT) to block the binding of the antibodies to Fc receptors. […] Cells were washed, fixed using BD CytoFix™ (BD biosciences, #554655) and analyzed on an IQue® (Intellicyt®) Flow Cytometer or Accuri Flow cytometer (BD). […] The results were analyzed using ForeCyt® (IntelliCyt®) software to determine the geometric means of fluorescence (MFI) for viable cells. Binding ratios were calculated by normalizing the MFI of the test sample by the MFI of the unstained sample.
Regarding B1, the “Binding Ratio (Sample over unstained MFIs)” value (“Binding Ratio” below) was determined as 12 and the “Raw MFI” value came out at 1850 MFI.
As to B2, the “Binding Ratio” value is 33 and the “Raw MFI” value is 4910 MFI.
The corresponding values for B3 are 23 and 3490 MFI.
The corresponding values for B4 are 94 and 14100 MFI.
The like results for B5 were, in that order, 18 and 2670 MFI.
As to B6, the “Binding Ratio” value turned out to be 28 and the “Raw MFI” value stood at 4200 MFI.
Regarding B7, the “Binding Ratio” value was found to be 2 and the “Raw MFI” value was 231 MFI.
On to B8, for which the “Binding Ratio” value is 84 and the “Raw MFI” value came out at 12500 MFI.
The like results for B9 were, in that order, 32 and 4720 MFI.
The like results for B10 were, in that order, 17 and 2540 MFI.
The corresponding values for B11 are 90 and 13500 MFI.
Turning to B12, the “Binding Ratio” value was 30 and the “Raw MFI” value is 4570 MFI.

The next test has as its target T2, mouse IL-2Rγ endogenously expressed on …. Put plainly: flow cytometry, 10 ug/ml antibody, MC/9 cells (endogenous mouse IL-2Rg). Here is the method: as §1
As to B1, the “Binding Ratio” value is 1 and the “Raw MFI” value is 175 MFI.
The corresponding values for B2 are 1 and 178 MFI.
The like results for B3 were, in that order, 1 and 191 MFI.
The like results for B4 were, in that order, 1 and 91 MFI.
As for B5, the “Binding Ratio” value turned out to be 1 and the “Raw MFI” value is 167 MFI.
The corresponding values for B6 are 1 and 128 MFI.
In the case of B7, the “Binding Ratio” value came to 1 and the “Raw MFI” value came out at 192 MFI.
For B8, the “Binding Ratio” value was determined as 1 and the “Raw MFI” value was found to be 187 MFI.
The like results for B9 were, in that order, 1 and 185 MFI.
For the molecule B10, the “Binding Ratio” value stood at 1 and the “Raw MFI” value worked out at 154 MFI.
The corresponding values for B11 are 1 and 172 MFI.
The corresponding values for B12 are 1 and 170 MFI.

A further test concerns the target T1, human IL-2Rγ endogenously expressed on …. Put plainly: flow cytometry, 10 ug/ml antibody, Jurkat cells (endogenous human IL-2Rg). How it is done:
as §1
As for B1, the “Binding Ratio” value came out at 2 and the “Raw MFI” value turned out to be 179 MFI.
The corresponding values for B2 are 5 and 472 MFI.
The corresponding values for B3 are 4 and 315 MFI.
The like results for B4 were, in that order, 19 and 1660 MFI.
Consider B5, for which the “Binding Ratio” value turned out to be 1 and the “Raw MFI” value turned out to be 114 MFI.
The corresponding values for B6 are 1 and 110 MFI.
The corresponding values for B7 are 1 and 104 MFI.
The corresponding values for B8 are 18 and 1570 MFI.
Regarding B9, the “Binding Ratio” value was 6 and the “Raw MFI” value came to 488 MFI.
The corresponding values for B10 are 1 and 86 MFI.
In the case of B11, the “Binding Ratio” value is 16 and the “Raw MFI” value was found to be 1420 MFI.
The corresponding values for B12 are 6 and 500 MFI.
